# According to the supplement of paper PMC7877785:
# ± gives the uncertainty stated by the source.
# Assay: self-splicing fitness, log relative to wild type (ln ratio); higher = more splicing; Tetrahymena group I intron in knt gene, E. coli kanamycin selection, DiMSum; sequences stand for … in CUCUCU…GGAGGGAAAAGUUAUCAGGCAUGCACCUGGUAGCUAGUCUUUAAACCAAUAGAUUGCAUCGGUUUAAAAGGCAAGACCGUCAAAUUGCGGGAAAGGGGUCAACAGCCGUUCAGUACCAAGUCUCAGGGGAAACUUUGAGAUGGCCUUGCAAAGGGUAUGGUAAUAAGCUGACGGACAUGGUCCUAACCACGCAGCCAAGUCCUAAGUCAACAGAUCUUCUGUUGAUAUGGAUGCAGUUCACAGACUAAAUGUCGGUCGGGGAAGAUGUAUUCUUCUCAUAAGAUAUAGUCGGACCUCUCCUUAAUGGGAGCUAGCGGAUGAAGUGAUGCAACACUGGAGCCGCUGGGAACUAAUUUGUAUGCGAAAGUAUAUUGAUUAGUUUUGGAGUACUCGUGGUCG
# Procedure, shortened: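 Six replicate transformations of E. coli BL21(DE3) with a pET-22b(+) library were grown overnight at 37°C or 30°C. The library randomised all eight P1ex-region intron nucleotides, the intron lying in the knt kanamycin-resistance gene, and plates were LB agar with or without 25 μg/mL kanamycin plus 100 μg/mL carbenicillin, 50 μM IPTG and 0.2% rhamnose. Pooled colonies were amplicon-sequenced on an Illumina HiSeq 2500, and fitness is the DiMSum error-weighted combination of wild-type-normalised replicate fold changes, kanamycin versus none.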
Sequence,self-splicing fitness (ln) (30 °C),self-splicing fitness (ln) (37 °C)
UUUUAGCAAUAUUACGUUCU,-3.48 ± 0.37,-1.17 ± 0.17
AGCGAGCAAUAUUACGAGAG,-3.19 ± 0.32,-2.94 ± 0.32
CGACAGCAAUAUUACGGUAU,-3.62 ± 0.2,-2.45 ± 0.23
UUGCAGCAAUAUUACGAGAU,-3.6 ± 0.34,-2.64 ± 0.36
CCUGAGCAAUAUUACGUGGG,-3.25 ± 0.15,-2.85 ± 0.2
GGAGAGCAAUAUUACGAAGU,-3.48 ± 0.37,-1.33 ± 0.2
CGAGAGCAAUAUUACGAAGA,-3.49 ± 0.36,
AAGCAGCAAUAUUACGGCAA,-0.0737 ± 0.06,0.139 ± 0.081
GCAAAGCAAUAUUACGGGCG,-0.534 ± 0.079,-0.696 ± 0.11
CGACAGCAAUAUUACGCAGG,-2.05 ± 0.081,-0.906 ± 0.088
AAAAAGCAAUAUUACGUAUA,-2.14 ± 0.14,-1.5 ± 0.15
AAAUAGCAAUAUUACGGUCC,-1.33 ± 0.12,-0.378 ± 0.19
AGAAAGCAAUAUUACGUCUC,-2.56 ± 0.43,
GUUUAGCAAUAUUACGAUCU,-0.663 ± 0.12,-0.195 ± 0.18
CACUAGCAAUAUUACGUUCA,-2.34 ± 0.17,-2.49 ± 0.2
CGGUAGCAAUAUUACGUACA,-1.51 ± 0.14,-0.643 ± 0.19
CGAUAGCAAUAUUACGGCAG,-0.958 ± 0.087,-0.344 ± 0.12
ACAGAGCAAUAUUACGUGGA,-3.67 ± 0.31,-2.88 ± 0.31
GUGGAGCAAUAUUACGGAAA,-1.87 ± 0.46,
CGAAAGCAAUAUUACGCACA,-0.831 ± 0.11,-0.358 ± 0.16
GGAGAGCAAUAUUACGUUAG,-3.5 ± 0.23,-1.54 ± 0.41
CGGAAGCAAUAUUACGACUU,-1.28 ± 0.084,0.261 ± 0.089
AUGCAGCAAUAUUACGAGAA,-3.47 ± 0.32,-2.64 ± 0.34
CCAGAGCAAUAUUACGCGAA,-4.06 ± 0.4,-2.15 ± 0.29
UCUGAGCAAUAUUACGUGGA,-2.95 ± 0.29,-1.63 ± 0.18

Sequence,self-splicing fitness (ln) (30 °C),self-splicing fitness (ln) (37 °C)
GCCAAGCAAUAUUACGGAUA,-0.904 ± 0.069,-0.65 ± 0.073
GGAAAGCAAUAUUACGAGCC,-1.45 ± 0.12,-0.842 ± 0.17
GAAUAGCAAUAUUACGAGGC,-3.58 ± 0.38,-2.2 ± 0.3
GACCAGCAAUAUUACGUACA,-0.568 ± 0.067,0.0774 ± 0.083
AGUGAGCAAUAUUACGUAAU,-3.13 ± 0.15,-1.7 ± 0.15
CCAAAGCAAUAUUACGGAUG,-1.44 ± 0.069,-1.48 ± 0.1
ACUCAGCAAUAUUACGAUAU,-1.1 ± 0.081,-0.759 ± 0.11
ACUAAGCAAUAUUACGCGGA,-1.96 ± 0.094,-0.956 ± 0.083
AAGAAGCAAUAUUACGAUCA,-0.455 ± 0.08,-0.229 ± 0.099
UUAUAGCAAUAUUACGGCGG,-0.333 ± 0.16,0.825 ± 0.2
GCCAAGCAAUAUUACGAUUG,-4.04 ± 0.4,-2.12 ± 0.34
CCGAAGCAAUAUUACGUGUA,-4.03 ± 0.22,-2.81 ± 0.19
CUACAGCAAUAUUACGUAAG,-1.14 ± 0.068,-0.424 ± 0.092
GAUCAGCAAUAUUACGUGAA,-0.745 ± 0.062,-0.0764 ± 0.076
ACGAAGCAAUAUUACGACUA,-0.269 ± 0.083,-0.184 ± 0.081
CUGGAGCAAUAUUACGAUGU,-3.26 ± 0.16,-2.97 ± 0.23
GACCAGCAAUAUUACGACUA,-0.158 ± 0.056,-0.0882 ± 0.062
GCUCAGCAAUAUUACGCCUA,-0.718 ± 0.23,-0.514 ± 0.22
ACUGAGCAAUAUUACGCCCG,-2.15 ± 0.25,-0.509 ± 0.22
GCUUAGCAAUAUUACGUCGG,-1.89 ± 0.13,-1.75 ± 0.18
GGGCAGCAAUAUUACGGGAC,-2.3 ± 0.18,-1.61 ± 0.18
CGCUAGCAAUAUUACGUGUC,-2.34 ± 0.13,-2.78 ± 0.17
CGACAGCAAUAUUACGCGAA,-2.75 ± 0.17,-1.42 ± 0.14
UACAAGCAAUAUUACGUUCG,-0.617 ± 0.074,0.321 ± 0.099
AUUCAGCAAUAUUACGUUGC,-2.72 ± 0.23,-2.52 ± 0.3

Sequence,self-splicing fitness (ln) (30 °C),self-splicing fitness (ln) (37 °C)
AACCAGCAAUAUUACGCGAU,-3.69 ± 0.19,-1.77 ± 0.15
CGGUAGCAAUAUUACGCACC,,-0.162 ± 0.39
ACCCAGCAAUAUUACGCACC,-1.17 ± 0.1,-0.52 ± 0.16
ACCCAGCAAUAUUACGAUGU,-0.18 ± 0.041,-0.0583 ± 0.052
CGAAAGCAAUAUUACGGCAG,-0.162 ± 0.081,0.194 ± 0.1
AUUUAGCAAUAUUACGGACU,0.0925 ± 0.11,0.805 ± 0.13
UUGAAGCAAUAUUACGCGAG,-0.254 ± 0.086,0.721 ± 0.12
UAAAAGCAAUAUUACGACCU,-0.4 ± 0.085,0.0792 ± 0.098
GCACAGCAAUAUUACGAGUG,-4.09 ± 0.26,-2.64 ± 0.17
UUACAGCAAUAUUACGACCC,-2.6 ± 0.32,-2.14 ± 0.44
AGGUAGCAAUAUUACGUCGG,-2.803 ± 0.022,-1.63 ± 0.036
GAUGAGCAAUAUUACGCGAU,-3.05 ± 0.34,-1.57 ± 0.21
UUUAAGCAAUAUUACGUAUU,-2.16 ± 0.18,-0.782 ± 0.21
AUCGAGCAAUAUUACGGAUG,,0.184 ± 0.17
UAUCAGCAAUAUUACGUUAU,-3.07 ± 0.11,-1.89 ± 0.1
GCGGAGCAAUAUUACGCCCU,-2.95 ± 0.45,
CAAUAGCAAUAUUACGAUGC,-3.6 ± 0.24,-2.23 ± 0.23
ACUUAGCAAUAUUACGGUAU,-3.18 ± 0.12,-2.5 ± 0.13
UCUGAGCAAUAUUACGUACG,,-2.34 ± 0.35
AAGCAGCAAUAUUACGUCCC,-1.01 ± 0.15,-0.803 ± 0.2
UAUAAGCAAUAUUACGUGCU,-2.56 ± 0.16,-1.32 ± 0.15
GUUGAGCAAUAUUACGUUUC,-2.09 ± 0.2,-3.1 ± 0.34
GCUAAGCAAUAUUACGAGUA,-1.73 ± 0.18,-1.31 ± 0.12
CGCGAGCAAUAUUACGAUCG,-2.08 ± 0.11,-2.66 ± 0.29
CAUAAGCAAUAUUACGUCCU,-3.78 ± 0.27,-3.15 ± 0.19

Sequence,self-splicing fitness (ln) (30 °C),self-splicing fitness (ln) (37 °C)
GUCUAGCAAUAUUACGCAUU,0.0861 ± 0.1,0.379 ± 0.092
UACUAGCAAUAUUACGGACG,-0.258 ± 0.098,0.0809 ± 0.12
CCCAAGCAAUAUUACGCGAC,-3.2 ± 0.21,-2.29 ± 0.19
CUCGAGCAAUAUUACGAGCG,-3.66 ± 0.43,-2.84 ± 0.25
AUGCAGCAAUAUUACGGAAC,,-2.76 ± 0.36
UCAAAGCAAUAUUACGGAAC,-4.3 ± 0.32,
GAUAAGCAAUAUUACGUAGC,-2.22 ± 0.13,-0.793 ± 0.12
AUUGAGCAAUAUUACGAGGG,-2.87 ± 0.14,-2.85 ± 0.29
CUUCAGCAAUAUUACGGGGA,-3.36 ± 0.27,-1.65 ± 0.18
ACAUAGCAAUAUUACGGAGG,-3 ± 0.17,-0.703 ± 0.15
GAGAAGCAAUAUUACGCGCG,-0.394 ± 0.14,0.218 ± 0.16
CCAGAGCAAUAUUACGUUGG,-3.93 ± 0.23,-2.57 ± 0.23
ACUAAGCAAUAUUACGUUUG,-3.62 ± 0.18,-2.22 ± 0.17
CCCAAGCAAUAUUACGAUAC,-3.63 ± 0.46,
UGAUAGCAAUAUUACGGGCC,-3.78 ± 0.42,
AAUGAGCAAUAUUACGAGAG,,-2.7 ± 0.41
AAAAAGCAAUAUUACGAGGG,-3.5 ± 0.18,-1.84 ± 0.16
CACAAGCAAUAUUACGCUGA,-2.12 ± 0.12,-1.72 ± 0.12
UGUAAGCAAUAUUACGCGGA,-1.91 ± 0.26,-1.29 ± 0.2
UCGCAGCAAUAUUACGGGUU,-2.63 ± 0.14,-2.38 ± 0.16
CCCUAGCAAUAUUACGUCCU,-4.12 ± 0.37,-2.06 ± 0.28
UAGAAGCAAUAUUACGAAGC,,-2.2 ± 0.24
GGGGAGCAAUAUUACGAAAG,-3.12 ± 0.44,
AUUUAGCAAUAUUACGGGUC,,-2.23 ± 0.34
CUUCAGCAAUAUUACGGUAA,-1.67 ± 0.23,-1.88 ± 0.17
